US20140341971A1 (LIPOTEK, published 2014)

Molecular target: T1, human DC-SIGN (DC-specific intercellular adhesion molecule 3-grabbing nonintegrin) (human, UniProt Q9NNX6 1-404)
T1 construct: whole, on cells; Target on THP-1 cells transfected with human DC-SIGN and on human moDCs; also called CD209; human DC marker DC-SIGN
T1 sequence (looked up): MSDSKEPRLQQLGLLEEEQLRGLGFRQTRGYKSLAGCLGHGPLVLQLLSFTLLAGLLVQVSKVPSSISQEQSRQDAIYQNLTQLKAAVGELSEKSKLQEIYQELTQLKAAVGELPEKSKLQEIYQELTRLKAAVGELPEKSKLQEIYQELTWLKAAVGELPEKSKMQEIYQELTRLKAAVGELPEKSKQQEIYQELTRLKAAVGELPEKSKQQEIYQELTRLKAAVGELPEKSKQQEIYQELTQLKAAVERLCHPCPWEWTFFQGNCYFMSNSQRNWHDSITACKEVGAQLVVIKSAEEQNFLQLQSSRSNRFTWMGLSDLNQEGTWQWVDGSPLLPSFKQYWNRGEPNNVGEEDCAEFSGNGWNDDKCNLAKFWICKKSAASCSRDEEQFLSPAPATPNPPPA
Test: confocal microscopy, fluorescent vaccine on human monocyte-derived DCs
Procedure: FIG. 3: Z-sections through a human monocyte-derived dendritic cell (moDC) incubated with Lipovaxin-MM. […] Cells were placed on coverslips immediately prior to observation under the confocal microscope.

- binding result: binds
B1: DMS5000 (other)
VH: STEVQLLESGGGLVQPGGSLRLSCAASGFTFDRRAMGWVRQAPGKGLEWVSSIESDGTRTYYADSVKGRFTISRDNSKNTLYLQMNSLRAEDTAVYYCAKHPGSSYVFDYWGQGTLVTVSS
notes: Human VH domain antibody (dAb), made as a secreted protein in E. coli; also called DC-SIGN specific domain antibody (dAb); dAb
